The supplement of paper PMC10126150
± gives the standard deviation of the averaged measurements.

These sequences were tested on ATP (assay: switch fluorescence ratio, 500 uM ATP over buffer (Cy3 cluster intensity, sum of 5 cycles each) (fold (ratio)); higher = stronger signal-on switching upon ATP binding; sequences stand for … in TCGTCGGCAGCGTCAGATGTGTATAAGAGACAGTTTTTTTTTTTTTTTTTTTTTTTTT…TC). Settings: aptamer strand: ATP DNA aptamer (quencher-CACCTGGGGGAGTATTGCGGAGGAAGG + anchor), 100 nM annealed; ATP concentration: 500 uM.
How it was run: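 After annealing to 100 nM quencher-labelled ATP aptamer, Cy3-labelled switching-strand clusters on a modified Illumina MiSeq flow-cell were imaged in selection buffer. A second image followed after 15 min with 500 uM ATP at 22 °C, and five such buffer/ATP cycles were done, each separated by NaOH stripping and re-annealing. The fluorescence ratio, averaged per switch-domain sequence, is summed target-cycle over summed buffer-cycle Cy3 intensity per cluster, with clusters outside 100-1000 RFU excluded.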
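Also: ATP exposure 15 min at 22 °C before imaging.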

In order of falling switch fluorescence ratio:
1. AATTCCTACG  2.571 ± 0.02
2. AATCTGATGT  1.18 ± 0.28
3. AATGCAACAG  1.15 ± 0.056
4. AATCTGCTGC  1.09 ± 0.056
5. AATTAGGGTG  1.09 ± 0.05
6. AATTAATTCC  1.07 ± 0.026
7. AATTAGGAGT  1.06 ± 0.079
8. AATCTGCTTG  1.05 ± 0.024
9. AATGCGCATC  1.05 ± 0.023
10. AATGTAGCAC  1.048 ± 0.0063
11. AATGTTTTCT  1.05 ± 0.057
12. AATTAACCCA  1.05 ± 0.051
13. AATTAACTCT  1.05 ± 0.02
14. AATCGATTCC  1.04 ± 0.034
15. AATCGGGCAG  1.04 ± 0.021
16. AATCTGTCCT  1.04 ± 0.027
17. AATGACGAGC  1.04 ± 0.017
18. AATGAGGGTA  1.04 ± 0.019
19. AATGTCCGTC  1.04 ± 0.046
20. AATGCAATTG  1.03 ± 0.016
21. AATGGATACT  1.03 ± 0.012
22. AATGTAAAG  1.03 ± 0.011
23. AATGTGGGTG  1.03 ± 0.045
24. AATGTTCATG  1.031 ± 0.0061
25. AATTCCTAGG  1.03 ± 0.025
26. AATTCGCACG  1.034 ± 0.006
27. AATCGCGTTT  1.017 ± 0.0012
28. AATGAGTGTT  1.02 ± 0.042
29. AATGCTCGCT  1.022 ± 0.0061
30. AATGGGCAGC  1.02 ± 0.013
31. AATGTAGACT  1.017 ± 0.0084
32. AATGTTCACG  1.02 ± 0.019
33. AATTAACTAT  1.02 ± 0.027
34. AATTATTACT  1.02 ± 0.034
35. AATTATTTTA  1.022 ± 0.0018
36. AATTCTGAGA  1.02 ± 0.048
37. AATTGAAGTG  1.022 ± 0.01
38. AATTGCCGCG  1.02 ± 0.055
39. AATCGCGGCT  1.01 ± 0.029
40. AATGACTTAA  1.01 ± 0.048
41. AATGGGGTCT  1.01 ± 0.047
42. AATGGGTTTG  1.01 ± 0.03
43. AATGGTTCGC  1.009 ± 0.0069
44. AATGTCAGGA  1.01 ± 0.044
45. AATGTCTGTA  1.01 ± 0.044
46. AATGTGTGGG  1.01 ± 0.02
47. AATTCGAGAT  1.01 ± 0.034
48. AATCGTGGTT  1 ± 0.034
49. AATGAGAGTG  1 ± 0.035
50. AATGATCGGG  1.004 ± 0.0094
51. AATGATGCTT  1 ± 0.051
52. AATGGCAGTG  1 ± 0.048
53. AATGGGTGGT  1 ± 0.017
54. AATTACTGG  1 ± 0.031
55. AATTAGGGGA  1 ± 0.014
56. AATTAGGTTT  1 ± 0.035
57. AATTCTAATA  0.9997 ± 0.0033
58. AATCGGGTCT  0.999 ± 0.015
59. AATGGCTGGG  0.999 ± 0.043
60. AATTGCCGTG  0.99946 ± 0.00023
61. AATGAAATAG  0.998 ± 0.0061
62. AATGAGTCGG  0.998 ± 0.033
63. AATGGGGGGA  0.998 ± 0.057
64. AATGGGGTTA  0.997 ± 0.023
65. AATCTCGTGG  0.995 ± 0.051
66. AATGGGGCTT  0.995 ± 0.03
67. AATGTTATTA  0.995 ± 0.048
68. AATGTTTTGT  0.994 ± 0.021
69. AATTAATTGG  0.994 ± 0.012
70. AATCGGGGCT  0.992 ± 0.013
71. AATGAAAAGT  0.992 ± 0.017
72. AATGGGTATC  0.9923 ± 0.0088
73. AATGTGTTTG  0.992 ± 0.042
74. AATGGATGTG  0.991 ± 0.013
75. AATTAAGATA  0.991 ± 0.03
76. AATTAGGATT  0.99 ± 0.016
77. AATGAGGGTC  0.989 ± 0.11
78. AATTGCGGGA  0.9893 ± 0.0085
79. AATGGTTGAC  0.988 ± 0.017
80. AATGTCAGAG  0.986 ± 0.02
81. AATTATGGGA  0.986 ± 0.051
82. AATCTGGGCG  0.985 ± 0.016
83. AATGCTTAGA  0.985 ± 0.03
84. AATGGTTCTC  0.985 ± 0.022
85. AATGTGTTG  0.984 ± 0.041
86. AATTAGTTAT  0.9835 ± 0.0033
87. AATGTGGTCG  0.983 ± 0.085
88. AATTAGTACG  0.981 ± 0.052
89. AATTATCTGT  0.9792 ± 0.0065
90. AATGTTGTTT  0.976 ± 0.02
91. AATTATCTGC  0.976 ± 0.015
92. AATGGGATTG  0.972 ± 0.0096
93. AATCTGTTCG  0.9708 ± 0.004
94. AATCGGGAGG  0.963 ± 0.062
95. AATGGTAAGG  0.963 ± 0.033
96. AATCGTCTTT  0.961 ± 0.024
97. AATGTCGCGC  0.961 ± 0.016
98. AATGTTAGTG  0.958 ± 0.036
99. AATCGTTGGG  0.955 ± 0.038
100. AATCGGGGTT  0.948 ± 0.015
